Experimental data published in the Human Domainome abundance scans (Beltran et al. 2025).
± gives the uncertainty stated by the source.

B1: Intersectin-2, residues 1129 to 1183; numbered along this chain, Q9NZM3 (parent)
chain: VCQVIAMYDYAANNEDELSFSKGQLINVMNKDDPDWWQGEINGVTGLFPSNYVKM

Variants of: B1
Assay: abundance fitness (aPCA) (normalised: wild type 0, dead -1); higher = more abundant; growth selection in yeast, the domain comes from the species named
Conditions: Homo sapiens

| Variant | abundance fitness |
| --- | --- |
| VCQVIAMYDYAANNEDELSFSKGQLINVMNFDDPDWWQGEINGVTGLFPSNYVKM [K31F] | -0.039 ± 0.058 |
| VCQVIAMYDYAANNEDELSFSKGQLINVMNEDDPDWWQGEINGVTGLFPSNYVKM [K31E] | 0.006 ± 0.051 |
| VCQVIAMYDYAANNEDELSFSKGQLINVMNVDDPDWWQGEINGVTGLFPSNYVKM [K31V] | 0.22 ± 0.039 |
| VCQVIAMYDYAANNEDELSFSKGQLINVMNYDDPDWWQGEINGVTGLFPSNYVKM [K31Y] | -0.103 ± 0.06 |
| VCQVIAMYDYAANNEDELSFSKGQLINVMNDDDPDWWQGEINGVTGLFPSNYVKM [K31D] | -0.044 ± 0.045 |
| VCQVIAMYDYAANNEDELSFSKGQLINVMNQDDPDWWQGEINGVTGLFPSNYVKM [K31Q] | -0.039 ± 0.066 |
| VCQVIAMYDYAANNEDELSFSKGQLINVMNTDDPDWWQGEINGVTGLFPSNYVKM [K31T] | 0.102 ± 0.032 |
| VCQVIAMYDYAANNEDELSFSKGQLINVMNIDDPDWWQGEINGVTGLFPSNYVKM [K31I] | 0.029 ± 0.058 |
| VCQVIAMYDYAANNEDELSFSKGQLINVMNGDDPDWWQGEINGVTGLFPSNYVKM [K31G] | -0.031 ± 0.037 |
| VCQVIAMYDYAANNEDELSFSKGQLINVMQKDDPDWWQGEINGVTGLFPSNYVKM [N30Q] | 0.019 ± 0.054 |
| VCQVIAMYDYAANNEDELSFSKGQLINVMEKDDPDWWQGEINGVTGLFPSNYVKM [N30E] | -0.046 ± 0.04 |
| VCQVIAMYDYAANNEDELSFSKGQLINVMKKDDPDWWQGEINGVTGLFPSNYVKM [N30K] | -0.001 ± 0.048 |
| VCQVIAMYDYAANNEDELSFSKGQLINVMYKDDPDWWQGEINGVTGLFPSNYVKM [N30Y] | -0.117 ± 0.058 |
| VCQVIAMYDYAANNEDELSFSKGQLINVMLKDDPDWWQGEINGVTGLFPSNYVKM [N30L] | -0.021 ± 0.032 |
| VCQVIAMYDYAANNEDELSFSKGQLINVMPKDDPDWWQGEINGVTGLFPSNYVKM [N30P] | -0.688 ± 0.058 |
| VCQVIAMYDYAANNEDELSFSKGQLINVMSKDDPDWWQGEINGVTGLFPSNYVKM [N30S] | -0.028 ± 0.029 |
| VCQVIAMYDYAANNEDELSFSKGQLINVMVKDDPDWWQGEINGVTGLFPSNYVKM [N30V] | -0.045 ± 0.038 |
| VCQVIAMYDYAANNEDELSFSKGQLINVMFKDDPDWWQGEINGVTGLFPSNYVKM [N30F] | -0.09 ± 0.047 |
| VCQVIAMYDYAANNEDELSFSKGQLINVMCKDDPDWWQGEINGVTGLFPSNYVKM [N30C] | 0.005 ± 0.041 |
| VCQVIAMYDYAANNEDELSFSKGQLINVMDKDDPDWWQGEINGVTGLFPSNYVKM [N30D] | -0.087 ± 0.052 |
| VCQVIAMYDYAANNEDELSFSKGQLINVMGKDDPDWWQGEINGVTGLFPSNYVKM [N30G] | -0.04 ± 0.045 |
| VCQVIAMYDYAANNEDELSFSKGQLINVMHKDDPDWWQGEINGVTGLFPSNYVKM [N30H] | -0.01 ± 0.054 |
| VCQVIAMYDYAANNEDELSFSKGQLINVMIKDDPDWWQGEINGVTGLFPSNYVKM [N30I] | -0.135 ± 0.057 |
| VCQVIAMYDYAANNEDELSFSKGQLINVMRKDDPDWWQGEINGVTGLFPSNYVKM [N30R] | -0.019 ± 0.034 |

| Variant | abundance fitness |
| --- | --- |
| VCQVIAMYDYAANNEDELSFSKGQLINVMTKDDPDWWQGEINGVTGLFPSNYVKM [N30T] | -0.034 ± 0.033 |
| VCQVIAMYDYAANNEDELSFSKGQLINVMMKDDPDWWQGEINGVTGLFPSNYVKM [N30M] | -0.025 ± 0.034 |
| VCQVIAMYDYAANNEDELSFSKGQLINVMWKDDPDWWQGEINGVTGLFPSNYVKM [N30W] | -0.16 ± 0.05 |
| VCQVIAMYDYAANNEDELSFSKGQLINVMAKDDPDWWQGEINGVTGLFPSNYVKM [N30A] | -0.002 ± 0.037 |
| VCQVIAMYDYAANNEDELSFSKGQLINVMNKDDPFWWQGEINGVTGLFPSNYVKM [D35F] | -0.085 ± 0.069 |
| VCQVIAMYDYAANNEDELSFSKGQLINVMNKDDPHWWQGEINGVTGLFPSNYVKM [D35H] | -0.048 ± 0.05 |
| VCQVIAMYDYAANNEDELSFSKGQLINVMNKDDPIWWQGEINGVTGLFPSNYVKM [D35I] | 0.03 ± 0.061 |
| VCQVIAMYDYAANNEDELSFSKGQLINVMNKDDPCWWQGEINGVTGLFPSNYVKM [D35C] | -0.167 ± 0.069 |
| VCQVIAMYDYAANNEDELSFSKGQLINVMNKDGPDWWQGEINGVTGLFPSNYVKM [D33G] | -0.043 ± 0.033 |
| VCQVIAMYDYAANNEDELSFSKGQLINVMNKDNPDWWQGEINGVTGLFPSNYVKM [D33N] | -0.034 ± 0.039 |
| VCQVIAMYDYAANNEDELSFSKGQLINVMNKDLPDWWQGEINGVTGLFPSNYVKM [D33L] | -0.077 ± 0.044 |
| VCQVIAMYDYAANNEDELSFSKGQLINVMNKDIPDWWQGEINGVTGLFPSNYVKM [D33I] | -0.112 ± 0.069 |
| VCQVIAMYDYAANNEDELSFSKGQLINVMNKDAPDWWQGEINGVTGLFPSNYVKM [D33A] | -0.065 ± 0.045 |
| VCQVIAMYDYAANNEDELSFSKGQLINVMNKDRPDWWQGEINGVTGLFPSNYVKM [D33R] | -0.015 ± 0.028 |
| VCQVIAMYDYAANNEDELSFSKGQLINVMNKDEPDWWQGEINGVTGLFPSNYVKM [D33E] | -0.009 ± 0.047 |
| VCQVIAMYDYAANNEDELSFSKGQLINVMNKDWPDWWQGEINGVTGLFPSNYVKM [D33W] | -0.237 ± 0.049 |
| VCQVIAMYDYAANNEDELSFSKGQLINVMNKDPPDWWQGEINGVTGLFPSNYVKM [D33P] | -0.287 ± 0.064 |
| VCQVIAMYDYAANNEDELSFSKGQLINVMNKDVPDWWQGEINGVTGLFPSNYVKM [D33V] | -0.092 ± 0.038 |
| VCQVIAMYDYAANNEDELSFSKGQLINVMNKDSPDWWQGEINGVTGLFPSNYVKM [D33S] | -0.037 ± 0.043 |
| VCQVIAMYDYAANNEDELSFSKGQLINVMNKDCPDWWQGEINGVTGLFPSNYVKM [D33C] | 0.042 ± 0.06 |
| VCQVIAMYDYAANNEDELSFSKGQLINVMNKDHPDWWQGEINGVTGLFPSNYVKM [D33H] | 0.103 ± 0.067 |
| VCQVIAMYDYAANNEDELSFSKGQLINVMNKDFPDWWQGEINGVTGLFPSNYVKM [D33F] | -0.24 ± 0.058 |
| VCQVIAMYDYAANNEDELSFSKGQLINVMNKDTPDWWQGEINGVTGLFPSNYVKM [D33T] | -0.023 ± 0.034 |
| VCQVIAMYDYAANNEDELSFSKGQLINVMNKDMPDWWQGEINGVTGLFPSNYVKM [D33M] | -0.12 ± 0.046 |
